Reference: patent US7265091B2, “Methods and compositions for treating male erectile dysfunction” (The Regents of the University of California, priority 2000, dated 2007)

Tests used:
[1] = test system: penile smooth muscle (alpha actin); assay: Alpha-smooth muscle actin immunohistochemistry of rat penis with image analysis; format: in vivo; conditions: castrated rats
Protocol: Frozen sections were cut at 10 microns, adhered to charged slides, air dried for 15 minutes then rehydrated with 0.05M PBS for 5 minutes. […] The serum solution was drained and then sections were incubated for 60 minutes with mouse monoclonal anti-alpha-smooth muscle actin (Sigma, St. Louis, Mo.) at a dilution of 1:4000 in PBS. […] Immunochemistry was performed in penile tissues from 4 rats randomly chosen from each subgroup.
Cross-sectional micrographs of the rat penis at the proximal shaft were examined after immunohistochemistry for alpha actin. Alpha actin, a marker for penile smooth muscle, stains brown and can be seen surrounding the sinusoidal spaces. […] Computerized image analysis with Adobe Photoshop was used to quantify the area of immunostaining by counting the number of digitized pixels corresponding to the area of brown staining, thereby providing some numerical comparison of the quantity of smooth muscle in each specimen.

[2] = test system: dorsal nerve, intracavernous smooth muscle cells and endothelial cells; assay: Transmission electron microscopy of penile tissue (Example 2); format: in vivo, rat; conditions: castrated rats, testosterone replacement
Description: Thick sections were cut and stained with toluidine blue to select specific areas for thin sectioning. Thin sections were cut, stained with both uranyl acetate and Reynold's Lead, and examined under the Phillips Tecnai 10 transmission electron microscope. Penile tissues from 4 randomly chosen rats in each subgroups were subjected to electron microscopic examinations.

[3] = Serum testosterone radioimmunoassay; format: in vivo, rat; conditions: castrated rats given subcutaneous testosterone implants
Protocol: (§1) Following castration, testosterone- or saline-filled silastic implants were placed in the subcutaneous tissue of the anterior abdominal wall, as previously described.^17 Implants were prepared using sterile silastic tubing (Dow Coming, Midland, Mich. #602-265, inner diameter 0.062″) that was filled with testosterone propionate powder (Sigma Chemical, St. Louis, Mo.) with the aid of wall suction.

[4] = test system: venogenic erectile dysfunction in castrated rats; assay: Pharmacologic cavernosometry, prevention trial in castrated rats (Experiment 2); format: in vivo, rat; conditions: castrated rats treated at castration, cavernosometry 9 weeks after castration
Description: For the prevention trial of VEGF in rats with venogenic erectile ED, adult males were castrated and immediately treated with hormone, intracavernosal VEGF. […] Control animals received an silastic implant containing saline (n=3), an intracavernous injection of normal saline (n=3) or an […] transfection vector expressing lacZ reporter gene without the VEGF gene (AAV-LacZ, n=11).
A 1.5 cm oblique incision was made in the lower abdominal skin extending from the midline just above the penile hilum to below the level of the glans about 1 cm lateral to the midline. The skin was sharply dissected from the anterior surface of the penis and then the penis was retracted anteriorly using a towel clamp placed around it atraumatically with the foreskin left intact. Using blunt dissection the penile base and crura were exposed. The ischiocavernosus muscles were sharply dissected off the anterior surface of the crus until the white of the tunica albuginea of the corpora cavernosa was identified. The crus was then gently cannulated using a 23 gage butterfly needle, and saline flush with a visual erectile response was used to confirm that the needle tip was truly intracavernosal. The intracavernosal injections were then administered with either VEGF protein (Calbiochem, La Jolla, Calif. #676472) at the dosage 4 ug/injection (in 0.1 cc PBS with 0.1% BSA), AAV-VEGF (10^10 viral particles in 0.1 cc NS), AAV-LacZ (10^10 viral particles in 0.1 cc NS), or 0.1 ml NS alone. The AAV-VEGF and AAV-LacZ constructs were a generous gift from Dr. Yuet W. Kan (Howard Hughes Medical Research Institute, San Francisco, Calif.).^19,20 Following injection, the needle was left in place for 5 minutes and then removed to allow the medication to diffuse throughout the cavernosal space. Immediately thereafter, pinpoint electrocautery was applied to the needle hole for hemostasis and then the wound was closed and the animal recovered as above.
as §1
To perform pharmacologic cavemosometry, both the right and left crura were separately cannulated using 23 gauge butterfly needles as described above. One cannula was flushed with sterile heparinized saline (100 U heparin/ml NS) and attached to a pressure detector for continuous intracorporal pressure (ICP) monitoring as previously described.^11 The contralateral cannula was attached to an infusion pump (Harvard Pump, Southwick, Mass. #55-2222), filled with sterile dilute heparinized saline (20 U heparin/ml NS). The baseline ICP was recorded (flaccid ICP) and then a dose of papavarine (1 mg in 0.1 cc NS) was administered through the infusion cannula. Five minutes was allowed for the papavarine to diffuse throughout the corpora and then the infusion cannula was flushed with heparinized saline and the pressure monitor cannula vented to normalize ICP after flushing. After 5 minutes more, the ICP was again recorded (ICP after papavarine) and the infusion started. An infusion rate of 0.05 ml/min was started and increased (by 0.05 ml/min every 10 seconds) until the ICP started to rise. Subsequent increases in inflow rate were made only after the ICP reached a plateau pressure. By slowly adjusting the inflow rate, an intracorporal pressure of 100 cm H2O (erectile pressure) was reached and the infusion rate required to maintain this pressure recorded (the maintenance rate). After this pressure was steady for 20 seconds, the infusion was terminated and the change in ICP over the subsequent 60 seconds was recorded (the drop rate).

[5] = test system: blood vessels and nerve fibers in the penis; assay: Penile tissue histology, nNOS staining and electron microscopy (Example 9); format: in vivo, rat; conditions: 3 months after bilateral cavernous nerve freezing
Protocol: (§2) Three months old Sprague-Dawley rats (N=30) were used: 6 underwent a sham operation; 24 underwent bilateral cavernous nerve freezing and then randomly divided into four groups of 6 each. The four groups of rats received intracavernous injection of one of the following: 1) phosphate buffered saline (PBS), 2) VEGF protein (4 μg), 3) adeno-associated virus (AAV)-BDNF, and 4). VEGF+AAV-BDNF. Erectile function was assessed by cavernous nerve electrostimulation 3 months later and samples of penile tissue were obtained for electron microscopy and immunohistochemical studies.

[6] = test system: Animal Model for Neurogenic Impotence; assay: Maximal intracavernous pressure on electrostimulation after bilateral cavernous nerve freezing (Example 3); format: in vivo, rat; conditions: 8 weeks after bilateral cavernous nerve freezing
Description: Male Sprague-Dawley rats (N=34; age, 3 months; weight, 350 to 400 gm.) were divided into two groups: sham (N=10) and experimental (N=24). The rats in the sham group underwent periprostatic dissection and identification of bilateral cavernous nerves without other manipulation; those in the experimental groups underwent bilateral cavernous nerve freezing. Several minutes after surgery, half of the experimental animals (LacZ group, N=12) received intracavernous AAV-LacZ injection, and the remainder (BDNF group, N=12) received AAV-BDNF. Half of the rats in each group were sacrificed at week 4 and the rest at week 8 for collection of penile tissue. In all animals, erectile function was assessed by electrostimulation of the cavernous nerves before sacrifice.
Under intraperitoneal pentobarbital sodium anesthesia (50 mg./kg.), each animal was placed on a heating pad to maintain its body temperature at 37° C. […]
At weeks 4 and 8 postoperatively, rats in each group were re-explored for direct electrostimulation of the cavernous nerves before tissue collection. […] Each cavernous nerve was stimulated and intracavernous pressures were measured and recorded with a Macintosh computer programmed with LabVIEW 4.0 software (National Instruments, Austin, Tex.). The pressure for each animal was determined by the mean of both sides.

[7] = test system: cavernous nerve injury in rats; assay: Maximal intracavernous pressure after bilateral cavernous nerve freezing (Example 9, VENT); format: in vivo, rat; conditions: 3 months after bilateral cavernous nerve freezing, intracavernous injection
Protocol: as §2

[8] = test system: NADPH diaphorase-positive nerve fibers and neurons; assay: NADPH diaphorase staining of penile tissue and major pelvic ganglia; format: in vivo, rat
Protocol: Sections were incubated with 0.1 mM. NADPH, 0.2 mM. nitroblue tetrazolium, 0.2% Triton X-100 in 0.1 M. PO4, pH 8.0, for 60 min. at room temperature. The reaction was terminated by washing in buffer. Slides were then coverslipped with buffered glycerin as the mounting medium.^13
The presence of NADPH diaphorase-positive nerves was evidenced as a blue stain in the major pelvic ganglia, dorsal nerves and cavernous tissue, and the staining pattern was assessed by counting the number of positive neurons in 4 random fields (magnification 400×). The percentage of darkly and lightly stained cells in the major pelvic ganglia was calculated by dividing the number of these cells by the total number of positive cells.

[9] = test system: major pelvic ganglia (MPG); assay: Nerve fiber outgrowth from cultured major pelvic ganglia; format: cell-based, rat; parameters: Average fiber length / FIBER LENGTH (average lengths of the growing fibers): unit not given here
Protocol: Each freshly isolated MPG was cut into 8 pieces of approximately equal size and each piece was then attached to a Matrigel-coated coverslip. The MPG pieces were cultured in serum-free medium supplemented with phosphate-buffered saline (PBS, control), 50 ng/ml of vascular endothelial growth factor (VEGF), 20 ng/ml of brain-derived neurotrophic factor (BDNF), or VEGF+BDNF. After 2 days of incubation, the ganglial tissues with their outgrowing nerve fibers were stained for the expression of NADPH diaphorase and acetylcholinesterase (AchE).
We have been using several experimental systems to test the efficacy of combination growth factor therapies for impotence. One system employs cultured rat major pelvic ganglia (MPG) that are known to innervate all urogenital organs, including the penis. We discovered that the cultured MPG are able to sprout new nerve fibers (nerve regeneration) from the axonal ends during the first 3 days of culture, especially when treated with VEGF, BDNF, NT-3, or NT-4.

[10] = test system: Erectile Dysfunction Induced by Hypercholesterolemia in a Rat Model; assay: Erectile function in rats fed a high cholesterol diet (Example 5); format: in vivo; conditions: 6 months cholesterol diet, 4 months after intracavernous treatment
Protocol: Twenty-one Sprague-Dawley rats were used. All rats were fed a 2.5% cholesterol diet with added lard starting at 2 weeks of age for 6 months. The rats were divided into three groups. All groups after two months of a high cholesterol diet underwent serum evaluation of cholesterol and intracavernous injection of saline or treatment. Group 1, the control group, received intracavernous injection of saline, group 2, the VEGF group, received intracavernous injection of 4 ug of VEGF, and group 3, the AAV-BDNF group received 15 ug of BDNF. After six months of cholesterol diet and 4 months of treatment, all rats were subjected to cavernous nerve electrostimulation, cavernosometry with intracavernous papaverine injection, and infusion cavernosometry with heparinized saline to measure erectile function.

[11] = 50 ng/ml VEGF, 20 ng/ml BDNF, 2 days of incubation

**Q.** For `CCC(=O)O[C@H]1CC[C@H]2[C@@H]3CCC4=CC(=O)CC[C@]4(C)[C@H]3CC[C@]12C` [Testosterone, testosterone propionate, reference compound], which “quantity of penile smooth muscle, qualitative” value [1] is on record?
**A.** returns to normal morphology

**Q.** What about the “nerve fibers and myelin sheath appearance” value [2] of the same molecule?
**A.** appeared similar to the sham group

**Q.** And the serum testosterone titer [3]?
**A.** in the normal range

**Q.** What about the “Drop Rate in 1 min.” value [4] of the same molecule?
**A.** 11.7(+/−16) cm H2O

**Q.** And the “Flaccid ICP” value [4]?
**A.** 28.9 cm H2O

**Q.** And the “ICP After Papavarine” value [4]?
**A.** 87.7(+/−26) cm H2O

**Q.** What about the “Maintenance Rate” value [4] of the same molecule?
**A.** 0.09(+/−0.1) ml/min

B1: BDNF: brain-derived neurotrophic factor added to MPG culture medium (Examples 7, 8) (protein, UniProt P23560 19-247, looked up)
Neurotrophic factor BDNF …: APMKEANIRGQGGLAYPGVRTHGTLESVNGPKAGSRGLTSLADTFEHVIEELLDEDQKVRPNEENNKDADLYTSRVMLSSQVPLEPPLLFLLEEYKNYLDAANMSMRVRRHSDPARRGELSVCDSISEWVTAADKKTAVDMSGGTVTVLEKVPVSKGQLKQYFYETKCNPMGYTKEGCRGIDKRHWNSQCRTTQSYVRALTMDSKKRIGWRFIRIDTSCVCTLTIKRGR
**Q.** Which results are given for B1?
**A.** nNOS positive nerve fibers in the dorsal nerves compared to PBS group [5]: increased number; Maximal intracavernous Pressure In Response to Electrostimulation [6]: 61.3 ± 12.5 cm H2O; maximal intracavernous pressure (MICP), mean±SEM [7]: 69.75±8.54 cm H2O; NADPH Diaphorase-positive Nerve Fibers, Cavernous Tissue ([8]; 4 Weeks): 45.5 ± 10.5; NADPH Diaphorase-positive Nerve Fibers, Dorsal Nerve ([8]; 4 Weeks): 65.5 ± 15.5; NADPH Diaphorase-positive Neurons in the Major Pelvic Ganglion, % Dark Stain ([8]; 4 Weeks): 62.1 ± 13.1 %; NADPH Diaphorase-positive Neurons in the Major Pelvic Ganglion, % Light Stain ([8]; 4 Weeks): 38.6 ± 11.8%; NADPH Diaphorase-positive Neurons in the Major Pelvic Ganglion, Dark Stain ([8]; 4 Weeks): 61.8 ± 23.7; NADPH Diaphorase-positive Neurons in the Major Pelvic Ganglion, Light Stain ([8]; 4 Weeks): 33.8 ± 9; NADPH Diaphorase-positive Neurons in the Major Pelvic Ganglion, Total ([8]; 4 Weeks): 95.7 ± 22.4; NADPH Diaphorase-positive Nerve Fibers, Cavernous Tissue ([8]; 8 Weeks): 66.1 ± 15.2; NADPH Diaphorase-positive Nerve Fibers, Dorsal Nerve ([8]; 8 Weeks): 86.4 ± 12.2; NADPH Diaphorase-positive Neurons in the Major Pelvic Ganglion, % Dark Stain ([8]; 8 Weeks): 64.3 ± 10.7 %; NADPH Diaphorase-positive Neurons in the Major Pelvic Ganglion, % Light Stain ([8]; 8 Weeks): 35.6 ± 10.7%; NADPH Diaphorase-positive Neurons in the Major Pelvic Ganglion, Dark Stain ([8]; 8 Weeks): 69.4 ± 21.1; NADPH Diaphorase-positive Neurons in the Major Pelvic Ganglion, Light Stain ([8]; 8 Weeks): 38.4 ± 14; NADPH Diaphorase-positive Neurons in the Major Pelvic Ganglion, Total ([8]; 8 Weeks): 107.8 ± 23.58; AchE staining intensity [9, 11]: 1,102±211 IDV; NADPH staining intensity [9, 11]: 9,376±111 IDV; sustained intracavernous pressures during the pharmacologic erection phase of cavernosometry, vs high cholesterol controls [10]: significantly higher

B2: NT-4: neurotrophin-4 (protein, UniProt P34130 81-210, looked up)
Neurotrophin-4: GVSETAPASRRGELAVCDAVSGWVTDRRTAVDLRGREVEVLGEVPAAGGSPLRQYFFETRCKADNAEEGGPGAGGGGCRGVDRRHWVSECKAKQSYVRALTADAQGRVGWRWIRIDTACVCTLLSRTGRA
**Q.** For B2, which “FIBER LENGTH (average lengths of the growing fibers)” value ([9]; 48 hours after culturing) is on record?
**A.** 81
